Earlier results as cited in publication PMC5807066.
Several values for one entry are separate records, joined by “and”; a condition that tells them apart may be missing. Equal entries are not always repeated. Where two headings read alike, the source gives them in different places. One block for each substance: values may come before it.

Legend:
[1] = target: SecA (Escherichia coli) (UniProt P10408)
[2] = target: SecA (Escherichia coli) (UniProt P10408); remark: listed apart in the source
[3] = target: MBP (unfolded) (Escherichia coli) [MBP: P0AEX9]
[4] = target: SecA:SecYEG complex (Escherichia coli) (UniProt C4ZRJ3)
[5] = target: SecA (Escherichia coli) (UniProt P10408); remark: listed apart in the source

Sequence of SecA (P10408 whole entry): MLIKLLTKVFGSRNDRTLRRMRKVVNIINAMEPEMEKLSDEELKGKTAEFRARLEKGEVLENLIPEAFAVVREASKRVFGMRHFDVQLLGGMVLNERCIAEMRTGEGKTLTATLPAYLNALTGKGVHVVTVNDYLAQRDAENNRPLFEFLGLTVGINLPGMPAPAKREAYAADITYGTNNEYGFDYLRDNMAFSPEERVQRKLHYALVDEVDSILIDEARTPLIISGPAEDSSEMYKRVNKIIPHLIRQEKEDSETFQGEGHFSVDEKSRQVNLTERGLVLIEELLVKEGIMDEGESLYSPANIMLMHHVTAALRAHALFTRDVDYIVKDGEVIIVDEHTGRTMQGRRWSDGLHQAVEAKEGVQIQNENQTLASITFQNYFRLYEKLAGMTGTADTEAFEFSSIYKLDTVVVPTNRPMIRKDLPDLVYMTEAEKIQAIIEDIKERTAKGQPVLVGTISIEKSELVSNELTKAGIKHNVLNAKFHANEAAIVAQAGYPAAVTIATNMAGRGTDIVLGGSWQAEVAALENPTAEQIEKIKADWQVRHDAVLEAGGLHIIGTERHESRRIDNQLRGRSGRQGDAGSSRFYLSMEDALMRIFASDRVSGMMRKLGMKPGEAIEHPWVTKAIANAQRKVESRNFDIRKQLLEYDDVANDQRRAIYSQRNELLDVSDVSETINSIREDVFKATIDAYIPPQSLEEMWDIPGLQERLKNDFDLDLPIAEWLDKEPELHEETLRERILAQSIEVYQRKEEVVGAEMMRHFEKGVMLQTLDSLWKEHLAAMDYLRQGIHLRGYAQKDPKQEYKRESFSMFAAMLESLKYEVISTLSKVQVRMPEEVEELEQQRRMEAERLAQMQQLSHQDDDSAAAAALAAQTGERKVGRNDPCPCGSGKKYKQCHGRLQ

Kd [1]: 4000 nM | Kd [2]: 2000 nM | Kd [3]: 30 nM
Substance: SecB (from UniProt P0AG86)

Kd [4]: 230 nM
Substance: PhoA precursor (from UniProt P00634)

Substance: SecA (from UniProt P10408)
Kd [5]: 100 nM and 1000 nM
